Data published in patent publication US6544520B1, “Hepatitis B virus inhibitors” (priority 1996, dated 2003).
“And” between values parts separate entries of the source, which are not always exact repeats. Equal values may be shown once. Non-standard residues stand in square brackets, D forms with d. Residues, ends and D or L forms follow the SMILES beside them. No end group written: not given here. βAla = NCCC(=O)O

B1: phage 2 (peptide, not shown: large carriers)
chain: ADGALLGRMKPA
B2: phage 6 (peptide, not shown: large carriers)
chain: ADGALLGRMKRA
B3: phage 4 (peptide, not shown: large carriers)
chain: ADGTLLGRMKLA
B4: phage 4B-7 (peptide, not shown: large carriers)
chain: ADGHRSSLLGRMKGA
B5: phage 4A-1 (peptide, not shown: large carriers)
chain: ADGSRSSLLGRMKGA
B6: phage 4A-2 (peptide, not shown: large carriers)
chain: ADGPRSSLLGRMKGA
B7: phage 1 (peptide, not shown: large carriers)
chain: ADGSLLGRMKPA
B8: phage 4A-28 (peptide, not shown: large carriers)
chain: ADGYQRSLLGRMKGA
B9: phage 2A-8 (peptide, not shown: large carriers)
chain: ADRSLLGRMKGA
B10: phage 4A-26 (peptide, not shown: large carriers)
chain: ADGTQRSLLGRMKGA
B11: phage 4A-3 (peptide, not shown: large carriers)
chain: ADGAHRSLLGRMKGA

target: T1, association of L HBsAg with HBcAg (Hepatitis B virus genotype D subtype adw, UniProt P03147); experiment: biochemical; assay type: binding; conditions: not given
T1 construct: Purification of Particles Comprising Full-Length or Truncated HBcAg; made in house; host or cells: HBcAg: E. coli RB 791; L HBsAg: in vitro translation in rabbit reticulocyte lysate with canine pancreatic microsomal membranes
T1 sequence (P03147 whole entry, the tested form may be a part): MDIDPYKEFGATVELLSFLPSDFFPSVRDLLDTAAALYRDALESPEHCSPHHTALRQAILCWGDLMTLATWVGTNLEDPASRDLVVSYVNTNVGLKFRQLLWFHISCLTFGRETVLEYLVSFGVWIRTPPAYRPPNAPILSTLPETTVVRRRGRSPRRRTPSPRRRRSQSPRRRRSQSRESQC
Method: Inhibitors of the Association of HBsAg with HBcAg. The assay system developed for inhibitors of the interaction between HBsAg and HBcAg involved incubating purified membrane-inserted ^35S-labeled L polypeptide in HBcAg-coated wells and quantitating bound protein by scintillation counting. […] The principal target for polyclonal antibodies to the native, particulate S HBsAg resides between as 110 and aa 150 (31-33). […] However, large molecules, such as immunoglobulins, can cause stearic hindrance over a considerable distance in any compound to which they bind.
Inhibition of Membrane-Inserted L-Protein Binding to HBcAg by Antibodies and Peptides. Canine pancreatic microsomal membranes containing labeled protein were purified by layering the translation mixture (60 μl) on a 4-ml step gradient of 1-ml intervals of 77% (wt/vol), 30%, 20%, and 10% sucrose containing 20 mM Hepes (adjusted to pH 7.5 with NaOH)/2 mM dithiothreitol for fractionation by centrifugation (50,000 rpm, 2 hr at 4° C.; Sorvall model TsT 60.4 rotor). […] Sucrose gradient-purified L protein (4 μl) was diluted with NET-gel buffer (100 μl) containing various dilutions of either antibody or peptide for inhibition assays. Mixtures were incubated in HBcAg-coated wells (as in the paragraph Isolation of Phage that Bind to HBcAg) for 2 ½ hr at 4° C. and washed five times with NET-gel buffer with 10-min intervals. Wells were placed in scintillation vials containing Ecoscint A (5 ml; National Diagnostics) for quantitation of radioactivity.

Row | Molecule | inhibition of the reaction between L HBsAg and HBcAg (in words)
1 | GRMKG (not fully specified) | no inhibitory properties
2 | ALLTRILG (HBV Core Antigen Binding Peptide) [peptide including aa 21-27 of the S region, reference compound] | no inhibitory properties

same assay, conditions: IC50: concentration of peptide required to inhibit the binding of L HBsAg to HBcAg at a half maximal level, free peptide; HBcAg-coated wells

Row | Molecule | IC50
3 | CSCC[C@H](NC(=O)[C@H](CCCNC(=N)N)NC(=O)CNC(=O)[C@H](CC(C)C)NC(=O)[C@H](CC(C)C)NC(=O)[C@H](CO)NC(=O)[C@@H](N)CCCNC(=N)N)C(=O)N[C@@H](CCCCN)C(=O)NCC(=O)N[C@@H](C)C(=O)O | 0.29 ± 0.02 µM
4 | ALLGRMKG | 10 µM and 11 µM
5 | LDPAFR [LDPAFR, reference compound] | ~360 µM
6 | LGRMKG [LGRMKG] | 980 ± 157 µM
7 | CSCC[C@H](NC(=O)[C@H](CCCNC(=N)N)NC(=O)CNC(=O)[C@H](CC(C)C)NC(=O)[C@H](CC(C)C)NC(=O)[C@H](CO)NC(=O)[C@@H](N)CCCNC(=N)N)C(=O)N[C@@H](CCCCN)C(=O)NCC(=O)N[C@@H](C)C(=O)NCCC(=O)N[C@@H](CS)C(=O)O | 0.29 ± 0.03 µM
8 | CSCC[C@H](NC(=O)[C@H](CCCNC(=N)N)NC(=O)CNC(=O)[C@H](CC(C)C)NC(=O)[C@H](CC(C)C)NC(=O)[C@H](CO)NC(=O)[C@H](CCCNC(=N)N)NC(=O)[C@H](Cc1cnc[nH]1)NC(=O)[C@@H](N)CCSC)C(=O)N[C@@H](CCCCN)C(=O)NCC(=O)N[C@@H](C)C(=O)O | 0.8 ± 0.1 µM
9 | CSCC[C@H](NC(=O)[C@H](CCCNC(=N)N)NC(=O)CNC(=O)[C@H](CC(C)C)NC(=O)[C@H](CC(C)C)NC(=O)[C@H](CO)NC(=O)CNC(=O)[C@H](CC(=O)O)NC(=O)[C@H](C)N)C(=O)N[C@@H](CCCCN)C(=O)NCC(=O)N[C@@H](C)C(=O)N[C@@H](C)C(=O)NCC(=O)O | 4.5 ± 0.8 µM
10 | SLLGRMK [SLLGRMK] | 40.7 ± 4.8 µM
11 | LLGRMKG [LLGRMKG] | 46.2 ± 7.4 µM
12 | CSCC[C@H](NC(=O)[C@H](CCCNC(=N)N)NC(=O)CNC(=O)[C@H](CC(C)C)NC(=O)[C@H](CC(C)C)NC(=O)[C@H](CO)NC(=O)[C@H](CCCNC(=N)N)NC(=O)[C@H](Cc1c[nH]cn1)NC(=O)[C@@H](N)CCSC)C(=O)N[C@@H](CCCCN)C(=O)NCC(=O)N[C@@H](C)C(=O)NCC(=O)NCCC(=O)NCC(=O)N[C@@H](CS)C(=O)O | 3.8 ± 0.69 µM
13 | SLLGRMKGA | 2.4 ± 0.2 µM
14 | SLLGRMKG | 6.4 ± 0.7 µM
15 | Ac-SLLGRMKG | 26.2 ± 5 µM
16 | CSCC[C@H](NC(=O)[C@H](CCCNC(=N)N)NC(=O)CNC(=O)[C@H](CC(C)C)NC(=O)[C@H](CC(C)C)NC(=O)[C@H](CO)NC(=O)CN)C(=O)N[C@@H](CCCCN)C(=O)NCC(=O)N[C@@H](C)C(=O)O | 0.79 ± 0.23 µM
17 | CSCC[C@H](NC(=O)[C@H](CCCNC(=N)N)NC(=O)CNC(=O)[C@H](CC(C)C)NC(=O)[C@H](CC(C)C)NC(=O)[C@@H](N)CO)C(=O)N[C@@H](CCCCN)C(=O)NCC(=O)NCCC(=O)N[C@@H](CS)C(=O)O (H-SLLGRMKG[βAla]C-OH) | 1.8 ± 0.4 µM
18 | CSCC[C@H](NC(=O)[C@H](CCCNC(=N)N)NC(=O)CNC(=O)[C@H](CC(C)C)NC(=O)[C@H](CC(C)C)NC(=O)[C@H](CO)NC(=O)CNC(=O)[C@@H](N)CC(=O)O)C(=O)N[C@@H](CCCCN)C(=O)NCC(=O)N[C@@H](C)C(=O)N[C@@H](C)C(=O)O | 3 ± 0.4 µM
19 | HRSLLGRMKGA | 0.5 ± 0.04 µM

same assay, conditions: free peptide; HBcAg-coated wells

Row | Molecule | IC50: concentration of peptide required to inhibit the binding of L HBsAg to HBcAg at a half maximal level
20 | GRMKG (not fully specified) | no^2
21 | LLGRM (not fully specified) | no
22 | ALLPRMKG | no

same assay, conditions: inhibition of L HBsAg binding to HBcAg

Row | Molecule | fold improvement over the original ALLGRMKG peptide [fold]
23 | CSCC[C@H](NC(=O)[C@H](CCCNC(=N)N)NC(=O)CNC(=O)[C@H](CC(C)C)NC(=O)[C@H](CC(C)C)NC(=O)[C@H](CO)NC(=O)[C@@H](N)CCCNC(=N)N)C(=O)N[C@@H](CCCCN)C(=O)NCC(=O)N[C@@H](C)C(=O)O | > 40

target: T2, HBcAg (Hepatitis B virus genotype D subtype adw, UniProt P03147); experiment: Peptide inhibition of fusion phage binding to HBcAg-coated wells; conditions: not given
T2 construct: Purification of Particles Comprising Full-Length or Truncated HBcAg; made in house; host or cells: E. coli RB 791
T2 sequence (P03147 whole entry, the tested form may be a part): as above
Method: Phage-Binding Assay in Solution. […] Aliquots (100 μl) of each mixture were transferred to polystyrene wells (no. 2585, Costar) that had been coated with HBcAg (20 μg/ml in PBS; 125 μl per well). After 1 hr at 6° C. the wells were washed 10 times with TBS/BSA at 0.2 mg/ml. Bound phage were recovered and titered as described in the previous section. All assays were done in triplicate. The HBcAg concentration range was 1.58-50 μM for experiments with phage B2 and B3 and was 0.63-20 μM for experiments with phage B4. For peptide inhibition experiments, fusion phage (10^9 pfu/ml; 200 μl) were incubated with various concentrations of peptide (1 mM-10 nM) in HBcAg-coated wells for 90 min at 6° C.

Row | Molecule | inhibition of binding of fusion phage to HBcAg
24 | GRMKG (not fully specified) | inability to inhibit
25 | ALLTRILG (HBV Core Antigen Binding Peptide) [peptide including aa 21-27 of the S region, reference compound] | inability to inhibit

target: hepatitis B virus core antigen (HBcAg) (hepatitis B virus); experiment: peptide inhibition of 35S-labeled L HBsAg binding to HBcAg-coated wells; conditions: not given
Sequence (P03147 whole entry): as the sequence (P03147 whole entry, the tested form may be a part) above

Row | Molecule | IC50 [µM]
26 | peptide SLLGRMKG | 6.4
27 | peptide LLGRMKG | 46.2
28 | peptide CLLGRMKC | 652
29 | peptide ALLGRMKG | 11
30 | peptide AcSLLGRMKG | 26.2
31 | peptide LGRMKG | 980
32 | peptide SLLGRMK | 40.7
33 | peptide SLLGRMKG(β-A)C | 1.8

target: hepatitis B virus core antigen (HBcAg) (hepatitis B virus); experiment: as above; conditions: not given; remark: another data set of the same source

Row | Molecule | IC50 [µM]
34 | peptide ALLGRMKG | 10
35 | peptide LDPAFR | 360

target: hepatitis B virus core antigen (HBcAg) (hepatitis B virus); experiment: phage-binding assay in solution: phage incubated with HBcAg, free phage caught on HBcAg-coated wells and titered; conditions: not given

Row | Molecule | KD^Rel (relative dissociation constant) [µM]
36 | B1 | 0.767
37 | B2 | 0.181
38 | B3 | 0.02
39 | B4 | 0.0014
40 | B5 | 0.00196
41 | B6 | 0.00084
42 | B7 | 0.322
43 | B8 | 0.00088
44 | B9 | 0.00109
45 | B10 | 0.00084
46 | B11 | 0.00094
